How the values were obtained:
purified protein [1] = substrate: OCC(O)COc1ccccc1; experiment: purified protein; assay type: biochemical, Geobacillus stearothermophilus; details: 1 mM NAD+, 100 mM sodium phosphate pH 7, 30 °C, free enzyme
purified protein [2] = substrate: CCOCC(O)CO; experiment: purified protein; assay type: biochemical, Geobacillus stearothermophilus; details: 1 mM NAD+, 100 mM sodium phosphate pH 7, 30 °C, free enzyme
purified protein [3] = substrate: OCC(O)CO; experiment: purified protein; assay type: biochemical, Geobacillus stearothermophilus; details: 1 mM NAD+, 100 mM sodium phosphate pH 7, 30 °C, free enzyme
purified protein [4] = substrate: OCC(O)COCC(F)(F)F; experiment: purified protein; assay type: biochemical, Geobacillus stearothermophilus; details: 1 mM NAD+, 100 mM sodium phosphate pH 7, 30 °C, free enzyme
[5] = substrate: OCC(O)COc1ccccc1; experiment: purified protein, by the assay type; details: 30.0 °C

B1: BsGlyDH (GlyDH from Bacillus stearothermophilus) (Geobacillus stearothermophilus) (protein)
chain: MAAERVFISPAKYVQGKNVITKIANYLEGIGNKTVVIADEIVWKIAGHTIVNELKKGNIAAEEVVFSGEASRNEVERIANIARKAEAAIVIGVGGGKTLDTAKAVADELDAYIVIVPTAASTDAPTSALSVIYSDDGVFESYRFYKKNPDLVLVDTKIIANAPPRLLASGIADALATWVEARSVIKSGGKTMAGGIPTIAAEAIAEKCEQTLFKYGKLAYESVKAKVVTPALEAVVEANTLLSGLGFESGGLAAAHAIHNGFTALEGEIHHLTHGEKVAFGTLVQLALEEHSQQEIERYIELYLSLDLPVTLEDIKLKDASREDILKVAKAATAEGETIHNAFNVTADDVADAIFAADQYAKAYKEKHRK
B1 gave a Km (purified protein [1]) of 7 ± 2 mM, a Vmax (purified protein [1]) of 0.14 µmol/min/mg and a kcat (purified protein [1]) of 0.7 ± 0.1 s⁻¹. For the same protein, the kcat/Km (purified protein [1]) was 112 M⁻¹ s⁻¹, the Km (purified protein [2]) was 13.4 ± 0.4 mM and the Vmax (purified protein [2]) was 0.036 µmol/min/mg. The kcat (purified protein [2]) was 0.19 ± 0.003 s⁻¹, the kcat/Km (purified protein [2]) was 14 M⁻¹ s⁻¹ and the Km (purified protein [3]) was 50 ± 3 mM. For the same protein, the Vmax (purified protein [3]) was 1.4 µmol/min/mg, the kcat (purified protein [3]) was 7.4 ± 0.2 s⁻¹ and the kcat/Km (purified protein [3]) was 148 M⁻¹ s⁻¹. It also gave a Km (purified protein [4]) of 78 ± 8 mM, a Vmax (purified protein [4]) of 0.06 µmol/min/mg and a kcat (purified protein [4]) of 0.32 ± 0.01 s⁻¹. The kcat/Km (purified protein [4]) was 4 M⁻¹ s⁻¹ and the Km [5] was 6.6 mM.
